Measured values published in patent US6861257B1, “Methods for isolation of osteoclast precursor cells and inducing their differentiation into osteoclasts” (Shionogi & Co., Ltd., priority 1998, dated 2005).
“Also recorded” adds a separate entry of the source.

B1: IL-7: recombinant human IL-7 (Genzyme) (protein, UniProt P13232 26-177, looked up)
Interleukin-7: DCDIEGKDGKQYESVLMVSIDQLLDSMKEIGSNCLNNEFNFFKRHICDANKEGMFLFRAARKLRQFLKMNSTGDFDLHLLKVSEGTTILLNCTGQVKGRKPAALGEAQPTKSLEENKSLKEQKKLNDLCFLKRLLQEIKTCWNKILMGTKEH
B2: eotaxin-2: recombinant human eotaxin-2 (R & D Systems) (protein, UniProt O00175 27-119, looked up)
C-C motif chemokine 24: VVIPSPCCMFFVSKRIPENRVVSYQLSSRSTCLKAGVIFTTKKGQQFCGDPKQEWVQRYMKNLDAKQKKASPRARAVAVKGPVQRYPGNQTTC
B3: eotaxin-3: human CC type chemokine, amino acid sequence SEQ ID No.:2; recombinant protein from baculovirus-infected insect cells (protein, listed as Homo sapiens)
chain: MMGLSLASAVLLASLLSLHLGTATRGSDISKTCCFQYSHKPLPWTWVRSYEFTSNSCSQRAVIFTTKRGKKVCTHPRKKWVQKYISLLKTPKQL
B4: IL-4: recombinant human IL-4 (Genzyme) (protein, UniProt P05112 25-153, looked up)
Interleukin-4: HKCDITLQEIIKTLNSLTEQKTLCTELTVTDIFAASKNTTEKETFCRAATVLRQFYSHHEKDTRCLGATAQQFHRHKQLIRFLKRLDRNLWGLAGLNSCPVKEANQSTLENFLERLKTIMREKYSKCSS
B5: IL-11: recombinant human IL-11 (R & D Systems) (protein, UniProt P20809 22-199, looked up)
Interleukin-11: PGPPPGPPRVSPDPRAELDSTVLLTRSLLADTRQLAAQLRDKFPADGDHNLDSLPTLAMSAGALGALQLPGVLTRLRADLLSYLRHVQWLRRAGGSSLKTLEPELGTLQARLDRLLRRLQLLMSRLALPQPPPDPPAPPLAPPSSAWGGIRAAHAILGGLHLTLDWAVRGLLLLKTRL
B6: M-CSF: recombinant human M-CSF (R & D Systems) (protein, UniProt P09603 33-554, looked up)
Macrophage colony-stimulating …: EEVSEYCSHMIGSGHLQSLQRLIDSQMETSCQITFEFVDQEQLKDPVCYLKKAFLLVQDIMEDTMRFRDNTPNAIAIVQLQELSLRLKSCFTKDYEEHDKACVRTFYETPLQLLEKVKNVFNETKNLLDKDWNIFSKNCNNSFAECSSQDVVTKPDCNCLYPKAIPSSDPASVSPHQPLAPSMAPVAGLTWEDSEGTEGSSLLPGEQPLHTVDPGSAKQRPPRSTCQSFEPPETPVVKDSTIGGSPQPRPSVGAFNPGMEDILDSAMGTNWVPEEASGEASEIPVPQGTELSPSRPGGGSMQTEPARPSNFLSASSPLPASAKGQQPADVTGTALPRVGPVRPTGQDWNHTPQKTDHPSALLRDPPEPGSPRISSLRPQGLSNPSTLSAQPQLSRSHSSGSVLPLGELEGRRSTRDRRSPAEPEGGPASEGAARPLPRFNSVPLTDTGHERQSEGSFSPQLQESVFHLLVPSVILVLLAVGGLLFYRWRRRSHQEPQRADSPLEQPEGSPLTQDDRQVELPV

What was measured:
preosteoclasts [1] = assay: Induction of differentiation of preosteoclasts (from joint fluid of rheumatoid arthritis patients) into osteoclasts in the absence of accessory cells; assay type: cell-based; conditions: cytokine in place of human T-STIM in the medium, 37° C., 48-96 hours, no accessory cells
Experimental: The obtained cellular fraction was cultured in DMEM medium (Gibco BRL, #12430-21 or equivalent) supplemented with 10% (v/v) of fetal calf serum (FCS) in 5-7% CO2-containing air at 37° C. for several weeks. […]
Human T-STIM contains a variety of cytokines. In order to identify the cytokine which stimulates differentiation of preosteoclasts into osteoclasts, the differentiation was examined by modifycation the contents of Medium A described as previously in Example 1(3).
The following 16 kinds of medium (B-R) were prepared by using the cytokines shown below, alone or a mixture thereof, instead of human T-STIM contained in Medium A (Example 1(3)). […] Recombinant baculovirus containing the sequence was prepared to infect insect cells, then the recombinant eotaxin-3 protein was purified from the culture supernatant.)
The preosteoclasts obtained by Example 1(2) were cultured in the Medium […] described above at 37° C. for 48-96 hours.

preosteoclasts [2] = conditions: differentiation requiring the presence of accessory cells; cited from earlier work

Molecule	ability for inducing the differentiation of preosteoclasts (preosteoclasts [1])	induction of the differentiation of preosteoclasts into osteoclasts (preosteoclasts [2])
GM-CSF: recombinant human GM-CSF (R & D Systems)	have an ability for inducing the differentiation of preosteoclasts	–
IL-6: recombinant human IL-6 (R & D Systems)	do not have an ability for inducing the differentiation of preosteoclasts; also recorded: does not effect to the differentiation	induce the differentiation of preosteoclasts into osteoclasts
eotaxin: recombinant human eotaxin (R & D Systems)	have an ability for inducing the differentiation of preosteoclasts	–
B1	have an ability for inducing the differentiation of preosteoclasts	–
B2	have an ability for inducing the differentiation of preosteoclasts	–
B3	have an ability for inducing the differentiation of preosteoclasts	–
B4	do not have an ability for inducing the differentiation of preosteoclasts	–
B5	do not have an ability for inducing the differentiation of preosteoclasts; also recorded: does not effect to the differentiation	induce the differentiation of preosteoclasts into osteoclasts
B6	do not have an ability for inducing the differentiation of preosteoclasts; also recorded: does not effect to the differentiation	induce the differentiation of preosteoclasts into osteoclasts
